Experimental findings from the DeepSol protein solubility set are described below.

This data set in a line: soluble on expression in E. coli; label from the status in PepcDB or PDB records.
As for “MTVKVCVCGGGNGAHTLSGLAASRDGVEVRVLTLFADEAERWTKALGADELTVIVNEKDGTQTEVKSRPKVITKDPEIAISGADVVILTVPAFAHEGYFQAMAPYVQDSALIVGLPSQAGFEFQCRDILGDKAAAVSMMSFETLPWACRIKEFGRKVEVLGTKSVLAASLIKGTAKTVDPLSTLQMLHGAEPVFRLAKHFLEMLIMSYSFVHPAILFGRWGSWDGKPVPEAPLFYQGIDQATADMLTACSNECKDVANAIMAACPGNDLSDVKDIYQWYLEYYHEDIQDDHDLYHAITTNKSYKGLVHPVKAVDGGVAPDFGNRYLTEDIPMGMIVFKGVAIAAGVAIPSNDKLIMWAQEKIGKEYLVDGALTGKDVATTRCPQRYGFNTLDAILTGKKHHHHH”, the “soluble on expression in E. coli” value is on record as “soluble”.
Turning to “GPGSMFVEDKGLISEANLRALHVGTLKLHLFLQEWILPVSFSEKYGYKKEVLEEIIERYGSGSAAEARWTFEQLLGECEVPGQISWLEEHISEDIPYFYIADLFDSWCNLHRNLFVCSADAHETAKRSDDRFESELLCKGVIEKAISGVLPYDTAVRALCILAIGCRTNTQFMLKTIKPDFIINRYKLYTDDLAQPIDGNTDVTPLAEVNAATIGLLNALNTELQEQEKLKLWKSSTARKLPLLMQLNATPWCDSVDSLRRGLKGITSNNAATLLEEATQYFRCSELSK”, the “soluble on expression in E. coli” value was “not soluble”.
Turning to “MVNVAVNGYGTIGKRVADAIIKQPDMKLVGVAKTSPNYEAFIAHRRGIRIYVPQQSIKKFEESGIPVAGTVEDLIKTSDIVVDTTPNGVGAQYKPIYLQLQRNAIFQGGEKAEVADISFSALCNYNEALGKKYIRVVSCNTTALLRTICTVNKVSKVEKVRATIVRRAADQKEVKKGPINSLVPDPATVPSHHAKDVNSVIRNLDIATMAVIAPTTLMHMHFINITLKDKVEKKDILSVLENTPRIVLISSKYDAEATAELVEVARDLKRDRNDIPEVMIFSDSIYVKDDEVMLMYAVHQESIVVPENIDAIRASMKLMSAEDSMRITNESLGILKGYLI”, the “soluble on expression in E. coli” value is given as “soluble”.
In the case of “MKLGVVTRKGKRQDDIRMFSQFFEVKVYEIPEELPELIDEPAEILRLPDDFDVDMIVSFAAHPDINLELIKQAAERGIGLVIISGGAKGGAYKQLKEEGEKRGVRVVWEEICCATPKVEDERTREFFEHFGAPEVEVEVENGKVKDVRVKRSAFCGATYYVAEKIKGLSVEEAPTKAGYYTQIYPCLAPRGHEGGIHKAARAHKRAVEKAIEKSK”, the “soluble on expression in E. coli” value is on record as “not soluble”.
“MSLNLWGDRVGYSKYKYEGLLNLCLEVFQRLGYTKEDSYTIGEVLLLADLFGIESHGVQRLTLYYKGIRNGSIKVKNHMNIVKESPVSVVIDGDGGMGQIISKKAMERAIDKAKKTGIGMAIVKNSNHFGIAGYYSRMAERKGLMGIAMTNTRAIVLPTYGREQMLGTNPISIAMPARPIPFLLDMATSVITRGKVEVYSKNNQKLNYGWAMDDEGRKTDNPDKVLKLANGNTGGLLPLGGDTEIFGGHKGYGISFAVEMFTSILSGGLTSDEIRGNNNTNGVCHAFAAIDYGLFDDKNAIEKRMSAYMQKIRNSKKAYGASRIYTHGEKELEAYEDRMENGIPINENTIVEIKEICDYVDIDINNYLKEGHHHHHH”: the “soluble on expression in E. coli” value was “soluble”.
On to “SLFARITFYPSLFYNVMMEKITARHWYDRIDENVILGALPFRSVAQEMVQKENIKAVVSMNEDYELWAFSNNKARWAKLGVEFLQLETTDIFESPCQEKLWKGVNFMNRFLPANDRMALLPAAPGELAEPGTIYVHSKAGRTRSATLVGCYLIMKNGWSPEQAVEHMRQCRPHILLRSKQWEALRLFHQTKCPPPK”, for which the “soluble on expression in E. coli” value was “soluble”.
As for “MLMTIDISEESLAKESADLLKILLKDRTTKKSIVWATHSYELLGKGFAPSDRINPSKVTGNFANLIQPRSEKSKYEQKDRTKIRAEVFTPTWLVAKQNGYVESKLGSLSLEEYVDLRWLEVTCGEAPYMVTRYDTVTGEEIPLSERVGFVDRKLQRISREVSDEVTFYKLVKDAYHASYGYEYQGDSLLLARENLLATFEDYYLAKTGNQPTLEQKKEIATIISYNVFQMDGLKKSSPYSAKQKQSQQLSLFADELEVQEVEESKTHIKDWKKNRMIGFERLSSEESEMKFDVVIGNPPYQETGEARDEPIYHYFIDEAYKIADKSILITPARFLFKAGQTPKNWMEKMLEDKHLKVQFYELKSGKVFTGTDIKGGVAITYRDVDKDLGPIGVFTIFETLNGIVKKIEKHPEFETFSDLVYPQGIYRFSNKLFSDYPNAEKLQGKGTKNKIVSKSLTQLDFVFKNNEEKDHVALLGRIGSERVYRYINKKYLDLPETFENYNVFVPEANGSGALGEVLSTPLIGEPLIGHTDTFLSIGNFKTKFEADACIKFIKTKFARVLLGVLKVTQHNSRKTWYYVPLQDFTVNSDIDWTQSVTDIDRQLDQKYDLSPEEIAFIENHVREMD”, the “soluble on expression in E. coli” value is “not soluble”.
With “MGSDKIHHHHHHMKTELVQVETEDSIVLHGAFYEAEQGKPAIIIMHGAAMNFYTGLGRFLPEILSEHGFSCLSANNRGHDFGTAPDHDRKPVIGLMRDIFKDCVKDVQALLHFLRSRGYPRVILLGHSQAIPKLLYAQNQLQFPEVQGMILVSPPPSVSKMMRYLTTDNYYERGLFKANELGEMGMYDQLIVLRGRGTMPWIFTVSTFLDFYGPNTPADTEELVKEIYCPMLLIRGSMDFPPVSMELMHNMKQNAAVPESVTIREINEASHFYSGQEKQLGNTILEWLDSY” the entry was “not soluble”; with “MEEQNNNQLQIELKEEVAQGTYANLAIITHSSSEFILDFVRVMPGVPKAGVQSRIIVAPEHAKRLLRALEDNIAKYERAFGPIRISEESPMPPLSVVKGEA”, “not soluble”; with “MQKTVVEIEKASHVLKLLGDKTRLTIMAILKQRECCVCELLEVFDMSQPAISQHLRKLKDAGLVKEDKRGQWIYYSLNSQNELYDFIQDILQHIPDQTENIRKIEETNPTLRCGC”, “soluble”.
Regarding “MSFRIYNTQKWSAEQMAPYLDKVIKSIAYFHKKFPDDYTPQTILNDILKGDKLLWIIVDEQENFMAHVTTELQKLVTGALRAVIVTLGGKGGAPLTKLIPQIEAYYKEKGAKELIIIGRRGWKKSLKSHGYFVNLLEYRKQL”, the “soluble on expression in E. coli” value was “not soluble”.
“NTDIRNIPVGVVDQSGSTAGRIITQSVKVTQVVDIKETYATAQEAEQAIQDGIVRAVLILPSDLTQRMMQGRELGQWIVDGSDTMISSAILSLQTMPLTDFDFEIRPAPSKTFEVALYYNPSRRSAVN”: the “soluble on expression in E. coli” value is on record as “not soluble”.
Take “MGSDKIHHHHHHMKTLKGPGIFLAQYIGDQAPFNTLENLAQWAAGLGFKALQIPCNHPHIFNLATAADSQTYCDEVKGLLAQHGLTISELSTHLEGQLVAVHPAYDDAFDDFAPPAYRRNPQARQQWAISAIKQAAKASSRLGLNAHATFSGALAWPYFYPWPPRKEALIQEAFKELGRLWTPILDCFDEHGVDVCYELHPGEDLHDGVTFERFLDVVNHHPRANILYDPSHMHLQQMDYLGFIDRYHARIKAFHVKDAEFTPSSKSGVYGGYQSWAERAGRFRSPGDGQIDFGAIFSKLAQYDYDGWAVLEWECCLKDSNCGAKEGAAFIDRHIIPVAQRAFDDFAATSDDRPLVRKMLGLKEEDAE”: the “soluble on expression in E. coli” value is listed as “not soluble”.
Consider “GMPNFSKNEEVLFSAVNEIFEEKIPFNKIIGLKVRFISPEQVKLSFEMRDELIGNAIRRMLYGGVISSAIDMTAGLAAFMGFQEKMSGKPMEEKLAMIGRLSTMSLHVEYLRPGLGREFVCTGYNVRTGNKVAVIRTELMNDQDELIAVGSVSYILV”, for which the “soluble on expression in E. coli” value is “soluble”.
For the sequence “MGSDKIHHHHHHMYRSRNRPKRGGENEVKGPNSALTQFLREEGISAENIKQKWYQRQSKKQEDATDEKKGKAEDDSFTAEISRVVEDEEIDEIGTGSGTETERAQVSYDARMKLVPADSDEEEYETSHISDTPVSLSSANDRESLTKKRQNTAKIIQNRRRKRKRAADLLDRRVNKVSSLQSLCITKISENISKWQKEADESSKLVFNKLRDVLGGVSTANLNNLAKALSKNRALNDHTLQLFLKTDLKRLTFSDCSKISFDGYKTLAIFSPHLTELSLQMCGQLNHESLLYIAEKLPNLKSLNLDGPFLINEDTWEKFFVIMKGRLEEFHISNTHRFTDKSLSNLLINCGSTLVSLGLSRLDSISNYALLPQYLVNDEFHSLCIEYPFNEEDVNDEIIINLLGQIGRTLRKLVLNGCIDLTDSMIINGLTAFIPEKCPLEVLSLEESDQITTDSLSYFFSKVELNNLIECSFRRCLQLGDMAIIELLLNGARDSLRSLNLNSLKELTKEAFVALACPNLTYLDLGFVRCVDDSVIQMLGEQNPNLTVIDVFGDNLVTEKATMRPGLTLIGRQSDSI”, the “soluble on expression in E. coli” value was “not soluble”.
As to “MGSDKIHHHHHHMSIDFYNQNASSFYASTVEVDSSSLLEQFTPYLPKGGSVLDAGCGSGRDSKRLIELGFHVDAFDASAALATLAQQLLGKPVRVATFMQFTSTLQYDGIWACASLLHVSKASLPDAFAHLASMLKSGGAFYCSFKYGQGEVERDGRSFTHCDEALLAELLTGSPLVIDKVWLTTDLRVGRENEQWLNAVLLKR”, the “soluble on expression in E. coli” value is listed as “not soluble”.
Turning to “MTDTASKYAVKLKTNFEDPKWVNRHKFMFNFLDINGNGKITLDEIVSKASDDICAKLGATPAQTQRHQEAVEAFFKKIGLDYGKEVEFPAFVNGWKELAKHDLKLWSQNKKSLIRNWGEAVFDIFDKDGSGSISLDEWKTYGGISGICPSDEDAEKTFKHCDLDNSGKLDVDEMTRQHLGFWYTLDPNADGLYGNFVP”, the “soluble on expression in E. coli” value is given as “soluble”.
With “GPGSMRSVIRSCVIFPAAGVAMRHDSSQQWVLNVMYGTGLAPRYGSWKSFGVGDALKENDTPVLYCKALVHASGGGRRARDWVAGCSAALFPSYELLKIAMRHNSSEEDVERYRRHLVETLEKAQGPQTGSANDAGNVTSGEDGSKSDTENDTDINMRLSQMPEVRCFVYDAMRAACFHRYKKVPEEQRVKLFTVAARLGLDEGTTMAIWRLVEKEGIVARDKQRALESPWND” the entry was “soluble”.
Under “SSKRKRKRSVQEGENPDDGVRGSPPEDYRLGQVASSLFRGEHHSRGGTGRLASLFSSLEPQIQPVYVPVPKQTIKKTKRNEEEESTSQIERPLSQEPAKKVKAKKKHTNAEKKLADRESALASADLEEEIHQKQGQKRKNSQPGVKVADRKILDDTEDTVVSQRKKIQINQEEERLKNERTVFVGNLPVTCNKKKLKSFFKEYGQIESVRFRSLIPAEGTLSKKLAAIKRKIHPDQKNINAYVVFKEESAATQALKRNGAQIADGFRIRVDLASETSSRDKRSVFVGNLPYKVEESAIEKHFLDCGSIMAVRIVRDKMTGIGKGFGYVLFENTDSVHLALKLNNSELMGRKLRVMRSVNKEKFKQQNSNPRLKNVSKPKQGLNFTSKTAEGHPKSLFIGEKAVLLKTKKKGQKKSGRPKKQRKQK” stands “soluble”; under “MSLQAPMALVPVRTIYPGEAISPEQVKSVEVTNPNISAGYASDISEVEGMISKQTLLPGRTIPIAALREPSLVVRGTSVKLVFHIGNMTLMASGTPMSDGSLGEVVRVRNIDSGVMVSGTVMKDGTIQVMAKEGHHHHHH”, “soluble”.
“LSKDILQLVGGEENVQRVIHCMTRLRFNLHDNAKADRSQLEQLPGVMGTNISGEQFQIIIGNDVPKVYQAIVRHSNLSDEKSAGSSSQKKNVLSAVFDVISG”: the “soluble on expression in E. coli” value is reported as “not soluble”.
For the sequence “MSLNSISHIPKAEIHVHLEATITPSLCRKFAKRNKVILSDDFFGSEYAYQWEDFYDFLKKYDIVTSVIHTPEDYYELTYAYLKECASHNVLYVEAMVSSTHAKAKGMTYQSFLDSIQEASLNAERDFGIVSRYLMNGIRHLGPESVQGTAEEVLKNPHPAIVGFGLAGDELHFPPHLFSKTFDMLKEENFPITVHAGEWDGPENIRKAINLLHPTRLGHGVRSIEDLDLVKEIIEKDIVLETCPTSNIATKIYENYENHPVKKLHELGAKVTVNSDDPPFFNATIQGEYEAMSKIGFADDVLISMTRNAIEYSFLDNQKKKEVLTKLNEGHHHHHH”, the “soluble on expression in E. coli” value is “soluble”.
